Legend:
human hepatocytes [1] = conditions: 0.2 mM H2O2, 24 hours
Experimental: Human hepatocytes (5200, ScienCell) were grown and maintained at 37° C. and 5% CO2. Hepatocyte medium (5201, ScienCell) supplemented with 2% fetal bovine serum and 1% Penicillin-streptomycin was renewed every 2-3 days and cells were passaged at 80% confluence using standard trypsinization techniques. All the experiments were carried out at low cell passage (P2-P3) and cells were serum-starved for 16 hours prior to respective stimulations (24 hours) that were performed in serum-free hepatocyte media. Stimulated cells were compared to unstimulated cells that have been grown for the same duration under the same conditions (serum-free hepatocyte media), but without the stimuli. […] The levels of IL-11 in mouse serum and hepatocyte supernatant were quantified using Mouse IL-11 DuoSet (DY418 and DY008, R&D Systems) and Human IL-11 Quantikine ELISA kit [MUT], R&D Systems), respectively, according to the manufacturer's protocol.

AILI [2] = assay: X209, NAC or NAC+X209 3 h after APAP in mice
Experimental: Mice were administered anti-IL11Rα (X209) or IgG isotype control antibody at different times and doses, as described above or in the figure legends.
The levels of alanine transaminase (ALT) or aspartate aminotransferase (AST) in mouse serum and hepatocyte supernatant were measured using ALT Activity (ab105134, Abcam) or AST (ab105135, Abcam) Assay Kits. Liver glutathione sulfhydryl (GSH) measurements were performed using Glutathione Colorimetric Detection Kit (EIAGSHC, Thermo Fisher). All colorimetric assays were performed according to the manufacturer's protocol.
Western blots were carried out from hepatocyte and liver tissue lysates. Hepatocytes and tissues were homogenized in radioimmunoprecipitation assay (RIPA) buffer containing protease and phosphatase inhibitors (Thermo Fisher), followed by centrifugation to clear the lysate. Protein concentrations were determined by Bradford assay (Bio-Rad). Equal amounts of protein lysates were separated by SDS-PAGE, transferred to PVDF membrane, and subjected to immunoblot analysis for the indicated primary antibodies. Proteins were visualized using the ECL detection system (Pierce) with the appropriate secondary antibodies.

[3] = test system: rheumatoid synovial cells; conditions: cited from earlier work
[4] = test system: APAP overdose acute liver injury; assay: Severe APAP overdose in mice, anti-IL11 antibody (X203) 16 h before; type: in vivo, mouse; conditions: 20 mg/kg IP 16 hours before APAP 400 mg/kg; 24 hours after APAP
AILI [5] = assay: rhIL11 or rmIL11 injection in APAP OD mice; type: in vivo, mouse
Experimental: FIGS. 10A to 10L. […] (A, B, K, L) 24 h. […] FC: fold change

mouse hepatocytes = assay: rhIL11 versus rmIL11 on mouse hepatocytes; type: cell-based
Source text: Mouse hepatocytes (ABC-TC3928, AcceGen Biotech) were maintained in mouse hepatocyte medium (ABC-TM3928, AcceGen Biotech) supplemented with 1% Penicillin-streptomycin.

human hepatocytes [6] = assay: rhIL11 versus rmIL11 on human hepatocytes; type: cell-based; conditions: 10 ng ml^-1
liver = conditions: single subcutaneous injection 500 μg kg^-1
Experimental: (A) Effect of recombinant human IL11 (rhIL11, 10 ng ml^−1) or recombinant mouse IL11 (rmIL11, 10 ng ml^−1) on ERK, JNK and CASP3 activation status in mouse hepatocytes. (B) ALT levels in mouse hepatocyte supernatant following stimulation by rmIL11 (10 ng ml^−1) or by increasing doses of rhIL11 (1, 5, 10, 15 and 20 ng ml^−1). (C) Schematic of mice receiving a single subcutaneous injection of either saline, rhIL11, or rmIl11 (500 μg kg^−1). (D) Western blot analysis of hepatic p-ERK, p-JNK, and Cl. […] Dose-dependent inhibition effect of rhIL11 on rmIL11-induced (K) ALT secretion and (L) CASP3 activation by mouse hepatocytes. (A, B, K, L) 24 h. (B, K) Data are shown as mean±SD; (E, G) Data are shown as box-and-whisker with median (middle line), 25th-75th percentiles (box), and minimum-maximum values (whiskers). (B, K) Two-tailed, Tukey-corrected Student's t-test; (E) two-tailed Student's t-test; (G) two-tailed Dunnett's test.
The levels of alanine transaminase (ALT) or aspartate aminotransferase (AST) in mouse serum and hepatocyte supernatant were measured using ALT Activity (ab105134, Abcam) or AST (ab105135, Abcam) Assay Kits. […] All colorimetric assays were performed according to the manufacturer's protocol.
Western blots were carried out from hepatocyte and liver tissue lysates. […] Protein concentrations were determined by Bradford assay (Bio-Rad). […]

[7] = test system: primary human hepatocytes; assay: hyperIL11 or hyperIL6 stimulation of primary human hepatocytes, with or without sgp130; type: cell-based
kidney = conditions: 100-1000 μg/kg, IP; 10 minutes prior to or 30-60 minutes following IR; cited from earlier work
[8] = test system: primary human hepatocytes; assay: IL11 stimulation of primary human hepatocytes with sgp130 or sIL11Rα; type: cell-based; conditions: for effect on IL11-induced hepatocyte death and signaling: IL11 20 ng/ml, sgp130, sIL11Rα 1 μg/ml; for effect on ALT release from IL11-stimulated hepatocytes: increasing doses

OO [H2O2, hydrogen peroxide]
IL-11 upregulated in the supernatant (human hepatocytes [1]): 10 fold

CC(=O)N[C@@H](CS)C(=O)O [NAC, N-acetyl-cysteine, reference compound]
ALT reduction (AILI [2]; 3 h after APAP, NAC 500 mg kg^-1, X209 5 mg kg^-1): 38% | serum levels of ALT and AST (AILI [2]; NAC 500 mg kg^-1 3 h after APAP): reduced serum levels of ALT and AST

COc1ccc2c(c1)c(CC(=O)O)c(C)n2C(=O)c1ccc(Cl)cc1 [indomethacin, reference compound]
expression of IL-11 [3]: reduction in the expression of IL-11

interferon-gamma: interferon-gamma (IFNγ)
expression of IL-11 [3]: reduction in the expression of IL-11

B1: X203: antagonist anti-IL11 antibody (Ng et al., Sci Transl Med. 2019) (antibody, V domains shown)
VH: EVQLQQSGPELVKPGASVKIPCKASGYTFTDYNMDWVKQSHGKSLEWIGDINPHNGGPIYNQKFTGKATLTVDKSSSTAYMELRSLTSEDTAVYYCARGELGHWYFDVWGTGTTVTVSS
VL: DIVLTQSPASLAVSLGQRATISCRASKSVSTSGYSYIHWYQQKPGQPPKLLIYLASNLDSGVPARFSGSGSGTDFTLNIHPVEEEDAATYYCQHSRDLPPTFGGGTKLEIK
serum ALT levels [4]: substantial reduction | serum AST levels [4]: substantial reduction

B2: rmIL11: recombinant mouse IL11 (UniProtKB: P47873, Genscript) (protein)
chain: PGPPAGSPRVSSDPRADLDSAVLLTRSLLADTRQLAAQMRDKFPADGDHSLDSLPTLAMSAGTLGSLQLPGVLTRLRVDLMSYLRHVQWLRRAGGPSLKTLEPELGALQARLERLLRRLQLLMSRLALPQAAPDQPVIPLGPPASAWGSIRAAHAILGGLHLTLDWAVRGLLLLKTRL
hepatic GSH levels after APAP (AILI [5]; APAP injury): did not | protection against AILI (AILI [5]; subcutaneous injection, APAP OD): not protective | ERK and JNK phosphorylation, CASP3 cleavage (mouse hepatocytes; 10 ng ml^-1, 24 h): stimulated ERK and JNK phosphorylation and induced CASP3 cleavage | mouse hepatocyte cell death (ALT in supernatant) (mouse hepatocytes; 24 h): induced mouse hepatocyte cell death | ERK and JNK signaling and hepatocyte death (human hepatocytes [6]): did not | hepatic ERK and JNK phosphorylation (liver): gradual ERK and immediate JNK activation

B3: HyperIL11: IL11Rα:IL11 fusion protein which mimics the trans-signalling complex (SEQ ID NO:21) (protein)
chain: MSSSCSGLSRVLVAVATALVSASSPCPQAWGPPGVQYGQPGRSVKLCCPGVTAGDPVSWFRDGEPKLLQGPDSGLGHELVLAQADSTDEGTYICQTLDGALGGTVTLQLGYPPARPVVSCQAADYENFSCTWSPSQISGLPTRYLTSYRKKTVLGADSQRRSPSTGPWPCPQDPLGAARCVVHGAEFWSQYRINVTEVNPLGASTRLLDVSLQSILRPDPPQGLRVESVPGYPRRLRASWTYPASWPCQPHFLLKFRLQYRPAQHPAWSTVEPAGLEEVITDAVAGLPHAVRVSARDFLDAGTWSTWSPEAWGTPSTGPAGQSGGGGGSGGGSGGGSVPGPPPGPPRVSPDPRAELDSTVLLTRSLLADTRQLAAQLRDKFPADGDHNLDSLPTLAMSAGALGALQLPGVLTRLRADLLSYLRHVQWLRRAGGSSLKTLEPELGTLQARLDRLLRRLQLLMSRLALPQPPPDPPAPPLAPPSSAWGGIRAAHAILGGLHLTLDWAVRGLLLLKTRL
modifications: Hyper IL-11 (IL-11RAIL-11 fusion)
ERK and JNK activation ([7]; 2.5 ng/ml to 20 ng/ml, 24 h): activated ERK and JNK in a dose-dependent manner | alanine transaminase (ALT) in the media ([7]; dose range, 24 h): dose-dependent increase in alanine transaminase (ALT)

B4: PEGylated rhIL11: PEGylated rhIL11 (Lee et al. 2012) (conjugate, UniProt P20809 22-199, looked up)
Interleukin-11: PGPPPGPPRVSPDPRAELDSTVLLTRSLLADTRQLAAQLRDKFPADGDHNLDSLPTLAMSAGALGALQLPGVLTRLRADLLSYLRHVQWLRRAGGSSLKTLEPELGTLQARLDRLLRRLQLLMSRLALPQPPPDPPAPPLAPPSSAWGGIRAAHAILGGLHLTLDWAVRGLLLLKTRL
modifications: PEG
renoprotection (kidney): The authors conclude that IL11 is renoprotective based on pre-

B5: sIL11Rα: soluble IL11Rα (human IL11Rα, R&D systems) (protein, UniProt Q14626 24-370, looked up)
extracellular domain: SPCPQAWGPPGVQYGQPGRSVKLCCPGVTAGDPVSWFRDGEPKLLQGPDSGLGHELVLAQADSTDEGTYICQTLDGALGGTVTLQLGYPPARPVVSCQAADYENFSCTWSPSQISGLPTRYLTSYRKKTVLGADSQRRSPSTGPWPCPQDPLGAARCVVHGAEFWSQYRINVTEVNPLGASTRLLDVSLQSILRPDPPQGLRVESVPGYPRRLRASWTYPASWPCQPHFLLKFRLQYRPAQHPAWSTVEPAGLEEVITDAVAGLPHAVRVSARDFLDAGTWSTWSPEAWGTPSTGTIPKEIPAWGQLHTQPEVEPQVDSPAPPRPSLQPHPRLLDHRDSVEQVAVLA
modifications: extracellular domain
effect on IL11-induced hepatocyte death and signaling [8]: unaffected | effect on ALT release from IL11-stimulated hepatocytes [8]: no effect on ALT release

B6: sgp130: human soluble gp130 Fc, inhibitor of trans-signaling complexes acting through gp130 (protein)
chain: ELLDPCGYISPESPVVQLHSNFTAVCVLKEKCMDYFHVNANYIVWKTNHFTIPKEQYTIINRTASSVTFTDIASLNIQLTCNILTFGQLEQNVYGITIISGLPPEKPKNLSCIVNEGKKMRCEWDGGRETHLETNFTLKSEWATHKFADCKAKRDTPTSCTVDYSTVYFVNIEVWVEAENALGKVTSDHINFDPVYKVKPNPPHNLSVINSEELSSILKLTWTNPSIKSVIILKYNIQYRTKDASTWSQIPPEDTASTRSSFTVQDLKPFTEYVFRIRCMKEDGKGYWSDWSEEASGITYEDRPSKAPSFWYKIDPSHTQGYRTVQLVWKTLPPFEANGKILDYEVTLTRWKSHLQNYTVNATKLTVNLTNDRYLATLTVRNLVGKSDAAVLTIPACDFQATHPVMDLKAFPKDNMLWVEWTTPRESVKKYILEWCVLSDKAPCITDWQQEDGTVHRTYLRGNLAESKCYLITVTPVYADGPGSPESIKAYLKQAPPSKGPTVRTKKVGKNEAVLEWDQLPVDVQNGFIRNYTIFYRTIIGNETAVNVDSSHTEYTLSSLTSDTLYMVRMAAYTDEGGKDGPEFTFTTPKFAQGEIE
modifications: left off: a dimerising Fc or GST
effect on IL11-induced hepatocyte death and signaling [8]: unaffected | effect on ALT release from IL11-stimulated hepatocytes [8]: no effect on ALT release | hepatotoxic effects of hyperIL11 (ALT) ([7]; increasing amounts of sgp130): inhibited the hepatotoxic effects of hyperIL11 | signaling pathways downstream of hyperIL11 and hyperIL6 ([7]; sgp130 with hyperIL11 or hyperIL6 20 ng/ml): blocked the activation of signaling pathways downstream of both hyperIL11 (p-ERK/p-JNK) and hyperIL6 (p-STAT3)
